Measurements reported in patent US12552866B2, “Internalizing binding molecules targeting receptors involved in cell proliferation or in cell differentiation” (LinXis B.V., priority 2019, dated 2026).
Blank lines part the entries; values can stand above or below the molecule they belong to.

Key:
hIGF2R-ECD = target: T1, hIGF2R-ECD (Homo sapiens, UniProt P11717); experiment: Binding assay / titration ELISA on recombinant hIGF2R-ECD; conditions: construct conjugated to Alexa Fluor 647, direct read out; KD+SEM, n=2; read-out: calculated affinity (KD)
T1 construct: recombinant human extracellular domain of IGF2R (hIGF2R-ECD)
Protocol: The 15 unique hIGF2R binders (Example 1.1, FIG. 2) were produced and purified as described in examples 2 and 3. The apparent affinities were determined with binding assays on hIGF2R-ECD. Briefly, three-fold serial VHH dilutions, starting from 1 μM, were added onto hIGF2R-ECD coated plates. After 2 hours of incubation, plates were washed and bound VHH was detected using a VHH-specific IgG antibody, followed by an IRD800CW-conjugated IgG-specific antibody. […] VHH 13F11 was also produced with a C-terminal free cysteine and conjugated using maleimide chemistry to Alexa Fluor 647 (13F11-A647 in FIG. 8A, conjugation method as described in example 9.2). A titration ELISA (direct read out at 647 nm) with this construct was carried out on hIGF2R-ECD to determine whether the affinity was affected after site directed conjugation (FIG. 8B). The KD and Bmax were calculated in Graphpad (version 8.3), using one-site specific binding analysis (FIG. 8C).
Based on their high affinity and binding to non-overlapping receptor epitopes, VHHs 13F11 and 13E8 were selected for the design of biparatopic and bivalent VHH constructs. Two VHHs were fused with a flexible linker, consisting of three Gly-Gly-Gly-Gly-Ser repeats (FIG. 8A). The sequences were codon optimized for expression in E. coli and obtained as synthesized DNA fragments from GeneArt. The DNA fragments encoding VHHs were cloned into a vector pET28-based vector introducing a C-terminal free cysteine for site-directed conjugation and His6 tag for IMAC purification (FIG. 8A). The constructs were produced and purified as described in example 3. The constructs were conjugated to Alexa Fluor 647 (conjugation method as described in example 9.2) and titration ELISAs on recombinant hIGF2R-ECD (as described in example 4.1) were performed to determine the KD and Bmax (calculated in Graphpad (version 8.3), using one-site specific binding analysis) (FIG. 8C).
Next, 13F11-13E8 was genetically re-engineered to include an in vivo half-life extender in the form of an albumin binding domain (ABD) as described by Johansson et al (Structure, specificity, and mode of interaction for bacterial albumin-binding modules, J. Biol. Chem. 2002 (277): 8114-8120) and subsequently produced and purified as described in Example 3. Subsequently, 13F11-13E8-ABD was conjugated to IRDye800CW (F11E8-ABD-IRD800, conjugation method as described in example 9.2) and the binding affinities of the biparatopic VHH as well as the ABD unit was determined. […] The binding affinity (KD) of F11-E8-ABD-IRD800 to rat serum albumin (RSA) was 30 nM and to mouse serum albumin (MSA) and human serum albumin (HSA) the binding affinity was approximately 200 nM.

[1] = In vivo pharmacokinetics in healthy Sprague-Dawley rats (serum ELISA); parameters: species or system rat; conditions: rat, i.v., approximately 3 mg/kg; LOD approximately 20 nM
Protocol: The in vivo pharmacokinetic properties of 13F11-13E8-ABD was compared to 13F11-13E8 without the ABD moiety in healthy Sprague-Dawley rats. In brief, rats were dosed intravenously with approximately 3 mg/kg body weight and blood samples were taken at different time points and the concentration of the VHH constructs were determined using an ELISA on immobilized hIGF2R-ECD.

[2] = test system: A549 cells (IGF2R positive); experiment: Internalization in A549 cells (acid wash, confocal); type: cell-based, human; conditions: 25 nM VHH conjugated to Alexa Fluor 647
Protocol: (§1) To assess if monovalent 13F11 and biparatopic 13F11-13E8 are internalized in the hIGF2R expressing cells, A549 cells (FIG. 16A) and NIH 3T3 2.2 cells transiently transfected with hIGF2R (FIG. 16B) were incubated with 25 nM VHH conjugated to Alexa Fluor 647 (conjugation method as described in example 9.2). A Mouse anti-IGF2R mAb was included to detect IGF2R expression on the hIGF2R transfected cells NIH 3T3 2.2 (FIG. 16B, right column), the mAb was detected with a goat anti-mouse mAb conjugated to Alexa Fluor 555. Additionally, mock transfected NIH 3T3 2.2 cells were incubated with 13F11 and 13F11-13E8 (FIG. 16C). […]
(§2) (FIG. 10D). […] The rate of internalization (endocytic rate constant, ke) of biparatopic constructs 13F11-13E8 and 13E8-13F11 was determined with a kinetic internalization assay on SCC-VII cells transfected with hIGF2R and rIGF2R. […] Subsequently, cells were washed with cold PBS and the non-internalized VHH construct (bound fraction) was separated from the internalized construct (internalized fraction) using an acid-wash, as described above, after which the fluorescence of both fractions were measured. […] Internalization was also observed in rIGF2R expressing SCC cells as a clear increase in fluorescence over time can be shown in FIG. 17 (ke around 0.7 min-1).

[3] = test system: NIH 3T3 2.2 cells transiently transfected with hIGF2R; experiment: Internalization in NIH 3T3 2.2 cells transiently transfected with hIGF2R; type: cell-based, human; conditions: 25 nM VHH conjugated to Alexa Fluor 647
Protocol: as §1, §2

[4] = test system: mock transfected NIH 3T3 2.2 cells; experiment: Internalization in mock transfected NIH 3T3 2.2 cells; type: cell-based; conditions: 25 nM VHH conjugated to Alexa Fluor 647
Protocol: as §1, §2

[5] = test system: hIGF2R expressing SCC cells; experiment: Kinetic internalization assay on hIGF2R expressing SCC cells; type: cell-based, human; conditions: 10 nM IRD800CW conjugate, 37° C., up to 12 minutes
Protocol: (§3) (FIG. 10D). […] The differences in internalization are possibly related to the differences in IGF2R expression levels on the target cells. […] Summarizing, biparatopic 13F11-13E8 clearly internalizes in cells expressing hIGF2R on the cell surface. The rate of internalization (endocytic rate constant, ke) of biparatopic constructs 13F11-13E8 and 13E8-13F11 was determined with a kinetic internalization assay on SCC-VII cells transfected with hIGF2R and rIGF2R. Briefly, 10 nM of IRD800CW conjugated 13F11-13E8 or 13E8-13F11 (conjugation method as described in example 9.2) was added to hIGF2R expressing SCC cells or rIGF2R expressing SCC cells and incubated at 37° C. for different time points up to 12 minutes. Internalization was then purposely halted by putting the cells on ice. Subsequently, cells were washed with cold PBS and the non-internalized VHH construct (bound fraction) was separated from the internalized construct (internalized fraction) using an acid-wash, as described above, after which the fluorescence of both fractions were measured. Both constructs internalize with similar endocytic rate constants (ke around 1.5 min-1) in the hIGF2R expressing SCC cells (FIG. 17). Internalization was also observed in rIGF2R expressing SCC cells as a clear increase in fluorescence over time can be shown in FIG. 17 (ke around 0.7 min-1).

[6] = test system: rIGF2R expressing SCC cells; experiment: Kinetic internalization assay on rIGF2R expressing SCC cells; type: cell-based, rat; conditions: 10 nM IRD800CW conjugate, 37° C., up to 12 minutes
Protocol: as §3

activated HSCs LX-2 = experiment: Internalization in living LX-2 cells with pHrodo red conjugates; type: cell-based, human; conditions: 50 nM pHrodo-red conjugate
Text: Internalization of monovalent 13F11 and biparatopics 13F11-13E8 and 13E8-13F11 in living activated HSCs LX-2 was visualized using the pHrodo pH dependent probe (ThermoFisher Scientific). The pH probe becomes more fluorescent as the pH of the surroundings decreases accordingly. Endosomes and lysosomes have a pH maintained at 6.5 and 4.5, respectively, compared to cytoplasmic pH of 7.0, and thus internalization of a VHH-pHrodo construct can be visualized when it internalizes via the endosomal pathway. LX-2 cells were incubated at 37° C. for 2 hours with 50 nM of pHrodo-red conjugated 13F11, 13F11-13E8 and 13E8-13F11 (conjugation method as described in example 9.2). Images were taken at 5 min. intervals using a wide-field PEXScope microscope (Nikon) with a mCherry filter and 40× oil objective. […] Additionally, both internalized 13F11-13E8 and 13E8-13F11 accumulate into perinuclear compartments (endosomes/lysosomes).

[7] = test system: primary activated rat hepatic stellate cells (HSCs); experiment: Binding (staining) to primary activated rat hepatic stellate cells; type: cell-based; conditions: 50 nM, HSCs from BDL rat, 6 days in culture
Protocol: The cross-reactivity of F11-E8-ABD was further evaluated in binding experiments to primary activated rat hepatic stellate cells (HSCs) by conjugating the construct to Alexa Fluor 488 (FE-A-A488, conjugation method as described in example 9.2). Activated HSCs were obtained from a perfused liver of a cirrhotic bile duct ligated (BDL) rat, the HSCs were isolated using density gradient centrifugation. Cells were kept in culture for 6 days to allow complete activation and then stained with 50 nM FE-A-A488. Activation was determined by an additional staining with alpha-smooth muscle actin (a-SMA).

rPDGFRB = target: T2, rPDGFRB (Rattus norvegicus, UniProt Q05030); experiment: Binding assay on SCC VII cells transfected with rPDGFRB; conditions: IRDye800CW conjugate, read-out: binding affinity (KD) to rPDGFRB
T2 construct: GFP; expressed in transfected cells; host or cells: SCC VII cells
Protocol: (§4) Based on their high affinity and binding to non-overlapping hPDGRB epitopes, VHHs SPO2P, SP12P SP14P and SP26P were selected for the design of biparatopic VHH constructs and produced in a similar way as described in example 6.1. (FIG. 15A). The binding affinities of the biparatopic constructs were determined with an ELISA assay with the periplasm (FIG. 15A). Moreover, based on their high affinity and binding to non-overlapping rPDGRB epitopes, VHHs SP26P and SP28P were selected for the design of a biparatopic VHH construct and produced in a similar way as described in example 6.1. The formed biparatopic SP28P-SP26P was conjugated to IRDye800CW (SP28P-SP26P-IRDye800CW conjugation method as described in example 9.2) and subjected to a binding assay SCC VII cells transfected with hPDGFRB, rPDGFRB or hIGF2R were performed (FIG. 15B). […] In order to create a biparatopic VHH construct which is cross-reactive for hPDGFRB and rPDGFRB, VHH SPO2P binding to hPDGFRB and VHH SPO26P binding to rPDGFRB were selected and the biparatopic construct SPO2P-SP26P was produced in a similar way as described in example 6.1. (FIG. 15C). Construct SPO2P-SP26P was conjugated to IRDye800CW (SP02P-SP26P-IRDye800CW, conjugation method as described in example 9.2) and subjected to bindings assays on SCC VII cells transfected with hPDGFRB, rPDGFRB or hIGF2R were performed (FIG. 15C). […]

hPDGFRB = target: T3, hPDGFRB (Homo sapiens, UniProt P09619); experiment: Binding assay on SCC VII cells transfected with hPDGFRB; conditions: relative to rPDGFRB
T3 construct: GFP; expressed in transfected cells; host or cells: SCC VII cells
Protocol: as §4

T3 sequence (P09619 33-1106): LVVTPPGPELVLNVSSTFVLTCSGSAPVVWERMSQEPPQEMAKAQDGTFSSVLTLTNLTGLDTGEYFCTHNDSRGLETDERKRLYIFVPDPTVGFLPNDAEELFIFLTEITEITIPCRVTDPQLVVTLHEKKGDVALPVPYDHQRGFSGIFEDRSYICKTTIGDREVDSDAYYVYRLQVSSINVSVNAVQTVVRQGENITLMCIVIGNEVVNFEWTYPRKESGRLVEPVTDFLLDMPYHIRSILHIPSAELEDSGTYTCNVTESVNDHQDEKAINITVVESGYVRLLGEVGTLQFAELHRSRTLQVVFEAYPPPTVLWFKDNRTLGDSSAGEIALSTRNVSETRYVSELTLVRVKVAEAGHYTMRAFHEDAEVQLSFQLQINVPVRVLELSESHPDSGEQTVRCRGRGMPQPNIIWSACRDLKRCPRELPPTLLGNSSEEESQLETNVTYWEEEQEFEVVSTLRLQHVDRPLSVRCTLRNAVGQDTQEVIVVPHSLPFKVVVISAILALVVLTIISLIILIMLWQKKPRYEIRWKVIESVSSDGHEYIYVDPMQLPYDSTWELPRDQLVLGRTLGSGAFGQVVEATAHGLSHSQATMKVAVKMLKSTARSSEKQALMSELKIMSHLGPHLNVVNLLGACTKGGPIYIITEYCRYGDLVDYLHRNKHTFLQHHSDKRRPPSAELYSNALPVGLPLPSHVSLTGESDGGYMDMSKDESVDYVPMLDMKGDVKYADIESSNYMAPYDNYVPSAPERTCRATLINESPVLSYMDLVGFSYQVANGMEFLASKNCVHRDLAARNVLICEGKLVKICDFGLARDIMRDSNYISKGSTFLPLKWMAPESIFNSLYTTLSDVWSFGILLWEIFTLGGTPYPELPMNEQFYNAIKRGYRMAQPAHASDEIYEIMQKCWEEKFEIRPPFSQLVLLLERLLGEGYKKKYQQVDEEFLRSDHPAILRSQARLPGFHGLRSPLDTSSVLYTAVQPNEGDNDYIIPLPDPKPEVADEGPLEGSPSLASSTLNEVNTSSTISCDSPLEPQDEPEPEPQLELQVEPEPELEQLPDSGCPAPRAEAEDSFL
T2 sequence (Q05030 32-1097): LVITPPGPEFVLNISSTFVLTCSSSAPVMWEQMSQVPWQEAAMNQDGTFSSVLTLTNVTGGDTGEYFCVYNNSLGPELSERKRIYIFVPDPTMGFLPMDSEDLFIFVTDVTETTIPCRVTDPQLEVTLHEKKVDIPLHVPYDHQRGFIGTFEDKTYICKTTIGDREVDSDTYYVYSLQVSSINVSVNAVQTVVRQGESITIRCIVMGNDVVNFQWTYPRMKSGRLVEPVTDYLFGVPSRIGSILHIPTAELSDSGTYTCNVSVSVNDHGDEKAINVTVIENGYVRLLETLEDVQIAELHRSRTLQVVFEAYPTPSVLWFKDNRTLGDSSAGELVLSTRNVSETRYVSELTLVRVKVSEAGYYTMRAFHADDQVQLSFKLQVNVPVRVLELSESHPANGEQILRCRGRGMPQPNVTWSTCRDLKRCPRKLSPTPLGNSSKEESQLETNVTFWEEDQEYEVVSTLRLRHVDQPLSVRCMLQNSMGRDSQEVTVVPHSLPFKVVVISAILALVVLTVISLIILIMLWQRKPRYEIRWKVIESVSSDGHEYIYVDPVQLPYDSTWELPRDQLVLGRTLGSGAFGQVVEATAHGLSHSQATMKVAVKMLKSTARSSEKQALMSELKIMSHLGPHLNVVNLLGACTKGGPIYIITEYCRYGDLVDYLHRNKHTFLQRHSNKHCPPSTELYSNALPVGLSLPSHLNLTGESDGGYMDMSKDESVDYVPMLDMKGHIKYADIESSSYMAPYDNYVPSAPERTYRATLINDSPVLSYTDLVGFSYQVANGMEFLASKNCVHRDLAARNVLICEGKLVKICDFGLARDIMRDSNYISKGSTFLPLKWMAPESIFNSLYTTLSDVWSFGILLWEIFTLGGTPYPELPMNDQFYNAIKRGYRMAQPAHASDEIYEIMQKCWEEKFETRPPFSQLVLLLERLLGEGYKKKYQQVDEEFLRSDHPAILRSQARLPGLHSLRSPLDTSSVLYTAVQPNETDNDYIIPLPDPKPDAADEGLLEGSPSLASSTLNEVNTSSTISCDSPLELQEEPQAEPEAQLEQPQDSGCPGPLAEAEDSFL

Kd (hIGF2R-ECD): 2.5 ± 1.87 nM
B1: 13F11-13E8: biparatopic anti-IGF2R VHH construct, 13F11 and 13E8 fused with (Gly-Gly-Gly-Gly-Ser)3 linker (protein)
chain: EVQLVESGGRLVQPGDSLRLSCAASGRTFSDNAMGWFRQAPGKERRFVAGISWAGGSTYYSDSVKGRFTISRDNAKNTVYLQMNSLKPEDTAVYYCAAGLRAWVQRMPKDYNYWGQGTQVTVSSGGGGSGGGGSGGGGSEVQLVESGGGLVQAGGSLRLSCAASRSISPMGWYRQAPGKQRELVAIMPSSGPPIYADSVQGRFTISRDNAKNTVYLQMNSLKPEDTAVYYCNVGGGYWGQGTQVTVSS
modifications: left off: small tags and cut ends
notes: biparatopic anti-IGF2R VHH construct, 13F11 and 13E8 fused with (Gly-Gly-Gly-Gly-Ser)3 linker
clearance from circulation [1]: could not be detected anymore within two hours after injection
internalization in A549 cells [2]: clearly internalized
internalization in hIGF2R transfected NIH 3T3 2.2 cells [3]: did internalise
internalization in mock transfected NIH 3T3 2.2 cells [4]: did not internalize
endocytic rate constant (ke) [5]: around 1.5 min-1
endocytic rate constant (ke) [6]: around 0.7 min-1
intracellular fluorescence compared to the monovalent construct (activated HSCs LX-2; 37° C., from 15 min. onwards): more pronounced increase in intracellular fluorescence
rate of internalization compared to 13E8-13F11 (activated HSCs LX-2; 40-min. time period): higher rate of internalization

B2: FE-A-A488: 13F11-13E8-ABD conjugated to Alexa Fluor 488 (conjugate)
chain: EVQLVESGGRLVQPGDSLRLSCAASGRTFSDNAMGWFRQAPGKERRFVAGISWAGGSTYYSDSVKGRFTISRDNAKNTVYLQMNSLKPEDTAVYYCAAGLRAWVQRMPKDYNYWGQGTQVTVSSGGGGSGGGGSGGGGSEVQLVESGGGLVQAGGSLRLSCAASRSISPMGWYRQAPGKQRELVAIMPSSGPPIYADSVQGRFTISRDNAKNTVYLQMNSLKPEDTAVYYCNVGGGYWGQGTQVTVSS
modifications: left off: large carriers; small tags and cut ends
binding to activated rat HSCs [7]: binds to rat HSCs

Kd (rPDGFRB): < 1 nM
binding affinity to hPDGFRB (hPDGFRB): a few orders of magnitude lower
B3: SP28P-SP26P-IRDye800CW: biparatopic SP28P-SP26P conjugated to IRDye800CW (conjugate)
chain: EVQLVESGGGLVQAGGSLRLSCAASGSIVSFNGINWYRQAPGKQREWVGGITQGGNTMYADSVRGRFTISRDNTKNTMYLQMNSLKPEDTAVYYCRRPPVASWGQGTQVTVSSGGGGSGGGGSGGGGSEVQLVESGGGLVQAGGSLRLSCAASGRSFSSSVMGWFRQTPGKEREFVAATRWTAASTHYADSVKGRFTISRDHAENAVFLQMNSLKPEDTAVYYCAAGNYLDTAQYRYNYWGQGTQVTVSS
modifications: left off: small tags and cut ends
